Source: patent US20250171520A1 (Regeneron, published 2025)
Positions count from the first letter of the chain named.

T1: human CD63 (human, UniProt P08962 2-238)
T1 sequence: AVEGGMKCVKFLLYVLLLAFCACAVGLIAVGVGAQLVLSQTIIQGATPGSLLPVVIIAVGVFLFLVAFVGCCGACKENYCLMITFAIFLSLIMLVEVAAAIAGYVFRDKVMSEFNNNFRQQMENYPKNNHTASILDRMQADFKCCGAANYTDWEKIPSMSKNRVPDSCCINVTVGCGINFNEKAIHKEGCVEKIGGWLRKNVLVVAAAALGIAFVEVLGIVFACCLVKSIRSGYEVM

B1: H2M12450N (antibody, V domains shown)
VH: QVQLQESGPKVVKPSETLSLTCTVSGGSISSYYWNWIRQSPGKGLEWIGYTKRGYTDYNPSLRSRVTISEDTSKNQFSLRISSVTAADTAVYYCAQMGWGSHAFDMWGQGTMVAVSS
VL: EIVLTQSPGTLSLSPGERATLSCRASQSVNSRYLAWYQQKPGQAPRLLIYGASSRATGIPDRCSGSGSGTDFTLTISRLEPEDFAVYYCQQYGSSPWTFGQGTKVEIK
notes: also called anti-CD63 antibody
B2: H1M12451N (antibody, V domains shown)
VH: QVQLQESGPGLMKPSETLSLTCTVSGGSFSSYYWNWIRQSPGKGLEWIGYIRYSGDTNYKPSLKSRFTISIDTSKNLFSLRLKSVTAADTAVYYCARMGLGSDAFDIWGQGTMVTVSS
VL: B1 VL with S31N, R32N, A52V, S53F, S54N, G58N, C63F
notes: This one was detected or captured with anti-mouse Fc reagents; also called HIM12451; anti-CD63 antibody
B3: H2M12395N (antibody, V domains shown)
VH: QVQLQESGPRLVKPSETLSLTCIVSGGSISNFYWNWIRQSPGKGLEWIGYFFYTGTIDYNPSLKSRVTISLDTSKNQFSLNLRLLTAADAAVYYCARMGLGANAFDIWGHGTMVTVSS
VL: B1 VL with S28H, N30S, R32N, A52G, C63F, E82A, Y87F, S94N, I107M
notes: as for B1
B4: H4H12450N (antibody, V domains shown)
VH: B1 VH
VL: not shown
notes: as for B1

Key:
[1] = biological target: T1, human CD63; assay: cell-based or functional assay
[2] = biological target: T1, human CD63; assay: ECL cell binding, NIH3T3/hCD63 cells
Procedure: (§1) LNCAP cells were determined to have a lower human CD63 copy number than U87MG cells. Non-transfected NIH3T3 cells, which have no detectable expression of human CD63 by fluorescence activated cell sorting (FACS), were included as a negative control.
(§2) Briefly, cell lines were rinsed once in PBS buffer without Ca²⁺/Mg²⁺ and incubated for 10 minutes at 37° C. with Enzyme Free Cell Dissociation Solution (Millipore, Cat #S-004-C) to detach the cells. Cells were then washed once with PBS with Ca²⁺/Mg²⁺ and counted with a Cellometer™ Auto T4 cell counter (Nexcelom Bioscience, LLC). Approximately 2.0×10⁴ NIH3T3/hCD63, LNCAP, U87MG or NIH3T3 cells were seeded separately onto 96-well carbon electrode plates (Meso Scale Discovery, Cat #L15XB-6) and were then incubated for one hour at 37° C. Nonspecific binding sites were blocked with 2% BSA (w/v) in PBS with Ca²⁺/Mg²⁺ for one hour at room temperature (RT). Solutions containing anti-CD63 antibodies or isotype control antibodies at a range of concentrations (1.7 pM to 100nM) in 0.5% BSA (w/v) in PBS with Ca²⁺/Mg²⁺, as well as control buffer alone, were then added in duplicate to the plate-bound NIH3T3/hCD63, LNCAP, U87MG or NIH3T3 cells and incubated for one hour at RT. Plates were subsequently washed to remove unbound antibodies using an AquaMax2000 plate washer with a cell washing head (MDS Analytical Technologies). […] Plates were washed and then incubated with Read Buffer (MSD, Cat #R92TD-2) according to the manufacturer's instructions. Luminescent signals were measured using a SECTOR Imager (MSD). Luminescence intensity, measured in relative light units (RLU), was recorded to indicate the binding intensity of each antibody at the range of concentrations tested. The ratio of signal detected with 3.7 nM antibody binding to human CD63 expressing cells compared to the same concentration of antibody binding to negative cells was reported as an indication of specificity of CD63 binding.

[3] = biological target: T1, human CD63; assay: ECL cell binding, U87MG cells
Procedure: as §1, §2

[4] = biological target: T2, recombinant human CD63 extracellular loop 2 expressed with a C-terminal human Fc tag (human); assay: SPR (Biacore), captured mAb, 25°C
T2 construct: also called hCD63 EC loop 2-hFc; human CD63 EC loop2-hFC
Procedure: (§3) Equilibrium dissociation constants (KD) for different CD63loop reagents binding to purified anti-CD63 monoclonal antibodies were determined using a real-time surface plasmon resonance based Biacore T200 biosensor or Biacore 2000 biosensor. All binding studies were performed in 10 mM HEPES, 150 mM NaCl, 3 mM EDTA, and 0.05% v/v Surfactant Tween-20, pH 7.4 (HBS-ET) running buffer at 25° C. and 37° C. The Biacore CM5 sensor chip surface was first derivatized by amine coupling with either a rabbit anti-mouse Fc specific polyclonal antibody (GE Healthcare, Cat #BR100838) or an anti-human Fab kit (GE Healthcare, Cat #28958325) to capture anti-CD63 monoclonal antibodies. Binding studies were performed on either recombinant human CD63 extracellular loop 2 expressed with a C-terminal Myc-Myc-hexahistidine (hCD63 EC loop 2-MMH; SEQ ID NO:80) or recombinant human CD63 extracellular loop 2 expressed with a C-terminal human Fc tag (hCD63 EC loop 2-hFc; SEQ ID NO:81). Different concentrations of hCD63 EC loop 2-MMH or hCD63 EC loop 2-hFc (either tested at 50 nM-12.5 nM in a 4-fold dilution or at 90 nM-0.37 nM in 3-fold serial dilutions) were first prepared in HBS-ET running buffer and were injected over the anti-mouse Fc captured anti-CD63 monoclonal antibody surface for 4 minutes at a flow rate of […] or 50 μL/minute, while the dissociation of monoclonal antibody bound CD63 reagent was monitored for 8 or 10 minutes in HBS-ET running buffer. The association rate (kₐ) and dissociation rate (kd) were determined by fitting the real-time binding sensorgrams to a 1:1 binding model with mass transport limitation using Scrubber 2.0c curve-fitting software. Binding dissociation equilibrium constant (KD) and dissociative half-life (t½) were calculated from the kinetic rates as: […]
(§4) Binding kinetics parameters for human CD63 EC loop 2 protein binding to different anti-CD63 monoclonal antibodies of the invention at 25° C. and 37° C. are shown in Tables 15 through 18.

[5] = biological target: T3, recombinant human CD63 extracellular loop 2 expressed with a C-terminal Myc-Myc-hexahistidine (human); assay: SPR (Biacore), captured mAb, 25°C
T3 construct: also called hCD63 EC loop 2-MMH; human CD63 EC loop2-MMH
Procedure: as §3, §4

[6] = biological target: T1, human CD63; assay: ECL cell binding, LNCAP cells
Procedure: as §1, §2

[7] = biological target: T1, human CD63; assay: flow cytometry, HEK293 cells endogenously expressing human CD63
Procedure: Relative cell surface binding of the anti-CD63 antibodies to human CD63 expressing cells was accessed via flow cytometry using CD63 positive HEK293 cells (ATCC, Cat #CRL-1573), which endogenously express human CD63, and CD63 negative HEK293/CD63 knock out cells. For the assay, cells were plated in PBS without calcium and magnesium (VWR, Cat #45000-446), containing 2% FBS (Saradigm Cat #1500-500) (Staining Buffer) in 96 well V-bottom plates (Axygen Scientific, Cat #P-96-450-V-C-S). Cells were then incubated with anti-CD63 antibodies or isotype control antibodies at concentrations ranging from 100 nM to 1.7 pM for 30 minutes on ice. Wells containing no antibody were used as controls. HEK293/CD63KO cells were stained with only the highest concentration (100 nM) of the antibodies. […] Cells were then washed and fixed using a 50% solution of Cytofix (BD Biosciences, Cat #554655) diluted in PBS. Samples were run on the Intellicyte Hypercyt flow cytometer and results were analyzed in ForeCyt software (Intellicyte) to calculate the mean fluorescent intensity (MFI). Measured values were analyzed using a four parameter logistic equation over a 12-point response curve using GraphPad Prism and the resulting EC₅₀ values are reported (Table 12). The signal to noise ratio (S/N) was determined by calculating the ratio of the anti-CD63 antibodies or the control antibodies MFI to the wells containing no antibodies (Table 12).

[8] = biological target: T2, recombinant human CD63 extracellular …; assay: SPR (Biacore), captured mAb, 37°C
Procedure: as §3, §4

[9] = biological target: T3, recombinant human CD63 extracellular …; assay: SPR (Biacore), captured mAb, 37°C
Procedure: as §3, §4

T3 sequence (chain, as listed by the source limits assumed): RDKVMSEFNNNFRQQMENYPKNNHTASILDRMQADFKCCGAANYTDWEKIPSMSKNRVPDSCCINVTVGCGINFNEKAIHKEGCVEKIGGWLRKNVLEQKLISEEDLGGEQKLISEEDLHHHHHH
T2 sequence (chain, as listed by the source limits assumed): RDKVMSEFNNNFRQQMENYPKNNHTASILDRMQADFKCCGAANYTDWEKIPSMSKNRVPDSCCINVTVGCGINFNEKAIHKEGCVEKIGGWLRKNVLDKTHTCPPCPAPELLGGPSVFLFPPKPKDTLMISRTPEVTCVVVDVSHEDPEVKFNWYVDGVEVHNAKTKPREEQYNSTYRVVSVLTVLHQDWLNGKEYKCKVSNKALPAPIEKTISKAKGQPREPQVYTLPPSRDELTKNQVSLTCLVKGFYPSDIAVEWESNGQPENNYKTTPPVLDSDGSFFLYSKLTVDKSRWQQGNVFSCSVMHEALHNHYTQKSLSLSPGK

Binder | T47D (nM) IC50, indirect cytotoxicity with anti-mFc Fab-MMAF [1] [nM] | EC50 [2] [nM] | ratio at 3.7 nM Ab of cell binding signal (RLU) to human CD63 cells relative to negative NIH3T3 [2] [fold] | ratio at 3.7 nM Ab of cell binding signal (RLU) to human CD63 cells relative to negative NIH3T3 [3] [fold] | 50 nM Ag Bound (RU) [4] [RU] | t½ [4] [min] | 50 nM or 90 nM Ag Bound (RU) [5] [RU] | t½ [5] [min] | EC50 [6] [nM] | ratio at 3.7 nM Ab of cell binding signal (RLU) to human CD63 cells relative to negative NIH3T3 [6] [fold] | HEK293 (S/N), MFI of antibody over wells with no antibody [7] | 50 nM Ag Bound (RU) [8] [RU] | t½ [8] [min] | 50 nM Ag Bound (RU) [9] [RU] | t½ [9] [min] | EC50 [3] [nM] | Kd [5] [nM] | koff [5] [s⁻¹] | kon [5] [M⁻¹ s⁻¹]
B1 | 0.24 | 0.28 | 230 | 175 | 134 | 248 | 65 | 41 | 0.21 | 20 | 26.7 | 138 | 236 | 58 | 57 | – | – | – | –
B2 | – | 0.57 | 91 | 52 | 107 | 138 | 52 | 27 | 1.7 | 7 | 31.6 | 118 | 35 | 44 | 6 | 0.95 | – | – | –
B3 | – | 0.29 | 256 | 171 | 117 | 23 | 42 | 6 | 0.35 | 18 | 21 | 123 | 6 | 31 | 1 | 0.79 | – | – | –
B4 | – | – | – | – | – | – | 24 | 157 | – | – | – | – | – | – | – | – | 0.53 | 7.37e-05 | 139000
